Measurements reported in patent US20260258115A1 (MAPP BIOPHARMACEUTICAL, published 2026).

B1: ADI-19458 (antibody, V domains shown)
VH: EVQLVESGGGRVKPGGSLRLSCAASGFTFRSYSMNWVRQAPGKGLEWVSSISSSSSYINYADSVKGRFTISRDNAKNSLYLQMNSLRAEDTAVYYCARDGSGMTIFGVVIDYWGQGTLVTVSS
VL: QSVLTQPPSVSGAPGQRVTISCTGSSSNIGAGYDVHWYQQLPGTAPKLLIYGNSNRPSGVPDRFSGSKSGTSASLAITGLQAEDEADYYCQSYDRSLTVVFGGGTKLTVL
notes: full-length IgG
B2: ADI-19509 (antibody, V domains shown)
VH: EVQLVESGGGLVKPGGSLRLSCAASGFTFSSYSMNWVRQAPGKGLEWVSSISSSSSYIYYADSVKGRFTISRDNAKNSLYLQMNSLRAEDTAVYYCASSRRSLTGDRGGWFDPWGQGTLVTVSS
VL: QSVLTQPPSVSGAPGQRVTISCTGSSSNIGAGYDVHWYQQLPGTAPKLLIYGNSNRPSGVPDRFSGSKSGTSASLAITGLQAEDEADYYCQSYDSSLSGWVFGGGTKLTVL
notes: full-length IgG
B3: ADI-19510 (antibody, V domains shown)
VH: EVQLVESGGGLVKPGGSLRLSCAASGFSLSSYYMNWVRQAPGKGLEWVSSISSSSTYINYADSVKGRFTISRDNAKNSLYLQMNSLRAEDTAVYYCARGGSITIFGVVFDSWGQGTLVTVSS
VL: SYELTQPPSVSGAPGQRVTISCTGTSSNIGAGYDVHWYQQLPGTAPKLLIYVNSNRPSGVPDRFSGSKSGTSASLAITGLQAEDEADYYCQSYDSSLSGGVFGTGTKVTVL
notes: full-length IgG; also called Ab 210
B4: ADI-24792 (antibody, V domains shown)
VH: EVQLVESGGGLVKPGGSLRLSCAASGFIFSDYYMSWIRQAPGKGLEWVSNISGGSSFTNYADSVKGRFTISRDNAKNSLYLQMNSLRAEDTAVYYCARDLGYCSSNSCLDAFDIWGQGTTVTVSS
VL: QSVLTQPPSVSGAPGQRVTISCTGSSSNIGAGYDVHWYQQLPGTAPKLLIYGNTNRPSGVPDRFSGSRSGTSASLAITGLQAEDEADYYCQSYDSSLSGSLFGGGTKVTVL
notes: full-length IgG
B5: ADI-25484 (antibody, V domains shown)
VH: EVQLVESGGGLVKPGGSLRLSCAASGFTFSSYSMNWVRQAPGKGLEWVSSISSSSSYIYYADSVKGRFTISRDNAKNSLYLQMNSLRAEDTAVYYCARSIAVAGTGYGMDVWGQGTTVTVSS
VL: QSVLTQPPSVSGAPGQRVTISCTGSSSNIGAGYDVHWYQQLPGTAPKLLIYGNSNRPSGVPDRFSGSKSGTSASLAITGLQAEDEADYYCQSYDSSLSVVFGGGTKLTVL
notes: full-length IgG
B6: ADI-24805 (antibody, V domains shown)
VH: QVQLVQSGGGLVKPGGSLRLSCAASGFTFSSYSMNWVRQAPGKGLEWVSSISSSSSYIYYADSVKGRFTISRDNAKNSLYLQMNSLRAEDTAVYYCAREGYSSSSGYYYYMDVWGKGTTVTVSS
VL: QSVLTQPPSVSGAPGQRVTISCTGSSSNIGAGYDVHWYQQLPGTAPKLLIYGNSNRPSGVPDRFSGSKSGTSASLAITGLQAEDEADYYCQSYDSSLSGSVFGTGTKVTVL
notes: full-length IgG; also called Ab 370
B7: ADI-24814 (antibody, V domains shown)
VH: EVQLLESGGGVVQPGRSLRLSCAASGFTFNSYTMHWVRQAPGKGLEWVAVISYDGSNKYYADSVKGRFTISRDNSKNTLYLQMNSLRAEDTAVYYCARGRPYDFWSGYYTDYYYYMDVWGKGTTVTVSS
VL: EIVLTQSPGTLSLSPGERATLSCRASQSVYSNYLAWYQQKPGQAPRLLIYGASSRATGIPDRFSGSGSGTDFTLTISRLEPEDFAVYYCQQCGSSWTFGQGTKVEIK
notes: full-length IgG
B8: ADI-24817 (antibody, V domains shown)
VH: EVQLVESGGGLVKPGGSLRLSCAASGFTFSSYSMNWVRQAPGKGLEWVSSISSSSSYIYYADSVKGRFTISRDNAKNSLYLQMNSLRAEDTAVYYCARDSMALLYSNYWFDPWGQGTLVTVSS
VL: QSVVTQPPSVSGAPGQRVTISCTGSSSNIGAGYDVHWYQQLPGTAPKLLIYGNSNRPSGVPDRFSGSKSGTSASLAITGLQAEDEADYYCQSYDSSLSGSVFGGGTKLTVL
notes: full-length IgG
B9: ADI-25532 (antibody, V domains shown)
VH: QVQLVQSGGGLVKPGGSLRLSCAASGFTFSSYSMNWVRQAPGKGLEWVSSISSSSSYIYYADSVKGRFTISRDNAKNSLYLQMNSLRAEDTAVYYCARGSSSSWYYFDYWGQGTLVTVSS
VL: QSVVTQPPSVSGAPGQRVTISCTGSSSNIGAGYDVHWYQQLPGTAPKLLIYGNSNRPSGVPDRFSGSKSGTSASLAITGLQAEDEADYYCQSYDSSLSYVFGTGTKVTVL
notes: full-length IgG
B10: ADI-24819 (antibody, V domains shown)
VH: EVQLLESGGGLVKPGGSLRLSCAASGFTFSSYSMNWVRQAPGKGLEWVSSISSSSSYIYYADSVKGRFTISRDNAKNSLYLQMNSLRAEDTAVYYCARESGSGWYYFDYWGQGTLVTVSS
VL: QSVLTQPPSVSGAPGQRVTISCTGSSSNIGAGYDVHWYQQLPGTAPKLLIYGNSNRPSGVPDRFSGSKSGTSASLAITGLQAEDEADYYCQSYDGSLSGVFGGGTKVTVL
notes: full-length IgG
B11: ADI-25462 (antibody, V domains shown)
VH: EVQLVESGGGLVKPGGSLRLSCAASGFTFSSYSMNWVRQAPGKGLEWVSSISSSSSYIYYADSVKGRFTISRHNAKNSLYLQMNSLRAEDTAVYYCARGSSSSWFCFDYWGQGTLVTVSS
VL: SYVLTQPPSVSGAPGQRVTISCTGSSSNIGAGYDVHWYQQLPGTAPKLLIYGNSNRPSGVPDRFSGSKSGTSASLAITGLQAEDEADYYCQSYDSSLSYVFGTGTKLTVL
notes: full-length IgG
B12: ADI-25495 (antibody, V domains shown)
VH: QVQLVQSGGGLVKPGGSLRLSCAASGFTFSSYSMNWVRQAPGKGLEWVSSISSSSSYIYYADSVKGRFTISRDNAKNSLYLQMNSLRAEDTAVYYCARGYCTNGVCYLDAFDIWGQGTTVTVSS
VL: QSVLIQPASVSGSPGQSITISCTGTSSDVGGYNYVSWYQQHPGKAPKLMIYDVSNRPSGVSNRFSGSKSGNTASLTISGLQAEDEADYYCSSYTSSSTPVVFGGGTKVTVL
notes: full-length IgG
B13: ADI-24828 (antibody, V domains shown)
VH: EVQLVESGGGLVKPGGSLRLACAASGFSFRSYRMNWVRQAPGKGLEWVSSISSSSSYIDYADSVKGRFTISRDNAKNTVYLQVNSLRAEDTAVYYCARDGRTIFGVVIDYWGQGTLVTVSS
VL: QSVLTQPPSVSGAPGQRVTISCTGSSSNIGAGYDVHWYQQLPGTAPKLLIYGNNNRPSGVPDRFSGSKSGTSASLVITGLQAEDEADYYCQSYDSSLSVVFGGGTKLTVL
notes: full-length IgG; also called Ab 390
B14: ADI-24831 (antibody, V domains shown)
VH: QVQLVESGGGLVKPGGSLRLSCAASGFTFSSYSMNWVRQAPGKGLEWVSSISSSSSYIYYADSVKGRFTISRDNAKNSLYLQMNSLRAEDTAVYYCARVPSDFWSGYYNDYWGQGTLVTVSS
VL: QSVLTQPPSVSGAPGQRVTISCTGSSSNIGAGYDVHWYQQLPGTAPKLLIYGNSNRPSGVPDRFSGSKSGTSASLAITGLQAEDEADYYCQSYDSSLSGSWVFGGGTKLTVL
notes: full-length IgG; also called Ab 393
B15: ADI-24832 (antibody, V domains shown)
VH: EVQLVESGGGLVKPGGSLRLSCAASGFTFSSYSMNWVRQAPGKGLEWVSSISASSSYIFYSDLVKGRFTISRDNAKNSLYLQMNSLRAEDTAVYYCARAGYYYGSGSYYVDYWGQGTLVTVSS
VL: QSVLTQPPSVSGAPGQRVAISCTGSSSNIGAGYDVHWYQQLPGTAPKLLIYGNSNRPSGVPDRFSGSKSGTSASLAITGLQAEDEADYYCQSYGSSLSGWVFGGGTKLTVL
notes: full-length IgG
B16: ADI-24835 (antibody, V domains shown)
VH: EVQLVESGGGLVKPGGSLRLSCAASGFPFSTSSMNWVRQAPGKGLEWVSSISSSSSYIDYADSVKGRFTISRDNAKNSLYLQMNSLRAGDTAVYYCARVPRSDWYYFDYWGQGTLVTVSS
VL: QSVVTQPPSVSGAPGQRVTISCTGSSSNIGAGYDVHWYQQLPGTAPKFLIYDNKYRPSGVPDRFSGSKSGTSASLAITGLQAEDEADYYCQSYDSSLSGYVFGTGTKLTVL
notes: full-length IgG
B17: ADI-24839 (antibody, V domains shown)
VH: EVQLVESGGGLVKPGGSLRLSCAASGFTFSSYSMNWVRQAPGKGLEWVSSISSSSSYIYYADSVKGRFTISRDNAKNSLYLQMNSLRAEDTAVYYCARVLVATAYGNAFDIWGQGTMVTVSS
VL: QSVLTQPPSVSGAPGQRVTISCTGSSSNIGAGYDVHWYQQLPGTAPKLLIYGNSNRPSGVPDRFSGSKSGTSASLAITGLQAEDEADYYCQSYDSSLTVVFGGGTKLTVL
notes: full-length IgG

Experiments:
[1] = target: T1, RSV postfusion F (postF), subtype A (respiratory syncytial virus subtype A, UniProt P03420 26-513); experiment: BLI
T1 construct: also called Postfusion subtype A; F deltaFP

[2] = target: T2, RSV prefusion F (preF), subtype B (respiratory syncytial virus subtype B); experiment: BLI, IgG
T2 construct: also called Prefusion subtype B

[3] = target: RSV F on RSV subtype A virus (mKate-RSV A2) (respiratory syncytial virus A2, UniProt P03420 26-574); experiment: cell-based or functional assay
[4] = target: RSV F on RSV subtype B virus (mKate-RSV B 18537) (respiratory syncytial virus B 18537, UniProt P13843 26-574); experiment: cell-based or functional assay

Binder	binding result [1]	Kd [2] [nM]	Neut IC50 subtype A [3] [µg/mL]	Neut IC50 subtype B [4] [µg/mL]
B1	no binding	0.243	0.04	0.07
B2	no binding	1.58	3.42	1.56
B3	no binding	0.239	0.16	0.83
B4	no binding	1.83	0.27	0.19
B5	no binding	18.4	15.3	8.58
B6	no binding	4.88	0.21	0.71
B7	no binding	2.39	0.73	0.32
B8	no binding	9.23	2.2	4.4
B9	no binding	1.56	0.04	0.05
B10	no binding	9.44	4.33	6.28
B11	no binding	1.71	0.15	0.11
B12	no binding	6.41	0.24	5.6
B13	no binding	0.391	0.02	0.04
B14	no binding	6.23	0.21	3.29
B15	no binding	1.95	0.49	0.24
B16	no binding	5.55	0.63	1.06
B17	no binding	9.63	0.44	4.1
